Data from US20260273045A1.

Biological target: OVA peptide SIINFEKL bound to H-2Kb MHC I on mouse phDC / BMDC (mouse)
Assay: cell-based or functional assay

T cell receptor of OVA-specific OT1 CD8 T cells (C57Bl/6-Tg (TcraTcrb)1100Mjb/J mice)
Proliferation of the OT1 CD8 T cells (CFSE dilution), coculture with titrated numbers of OVA mRNA LNP-transduced phDC: < 47%
